The data set concerns the molecule itself. As to the kind of experiment: crystal structure.

B1: Clostridium thermocellum polynucleotide kinase (CthPnk) mutant D38N (enzyme, UniProt A3DJ38 1-170, looked up)
chain: MKLTIPELSLVVLIGSSGSGKSTFAKKHFKPTEVISSNFCRGLVSDDENDQTVTGAAFDVLHYIVSKRLQLGKLTVVDATNVQESARKPLIEIAKDYHCFPVAVVFNLPEKVCQERNKNRTDRQVEEYVIRKHTQQMKKSIKGLQREGFRYVYILNSPEEVEEVVFERQP
As to B1, the binding result was “binds”.
